Biological target: GFP-actin (UniProt P60709)
Test: dual color fluorescence cross-correlation spectroscopy

How did the relative cross-correlation amplitude ([Gc(0)-1]/[Gr(0)-1]), apical membrane turn out when “DsRed-AQP2 (from UniProt P41181 1-271) (natural protein)” was run?
Its relative cross-correlation amplitude ([Gc(0)-1]/[Gr(0)-1]), apical membrane is 0.33.

What about the relative cross-correlation amplitude ([Gc(0)-1]/[Gr(0)-1]), subapical region of the same substance?
The relative cross-correlation amplitude ([Gc(0)-1]/[Gr(0)-1]), subapical region was 0.4.

— PMC2500142
